Source: patent US20190367619A1 (ARGENX, published 2019)

T1: cynomolgus galectin-10-His, YRT isoform (cynomolgus)
T1 sequence: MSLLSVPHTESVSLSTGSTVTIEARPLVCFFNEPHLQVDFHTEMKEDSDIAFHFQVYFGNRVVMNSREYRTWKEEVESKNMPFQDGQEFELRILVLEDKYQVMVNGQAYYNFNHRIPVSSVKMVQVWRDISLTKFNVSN

T2: recombinant human galectin-10, TEV-cleaved (human, UniProt Q05315 1-142)
T2 sequence: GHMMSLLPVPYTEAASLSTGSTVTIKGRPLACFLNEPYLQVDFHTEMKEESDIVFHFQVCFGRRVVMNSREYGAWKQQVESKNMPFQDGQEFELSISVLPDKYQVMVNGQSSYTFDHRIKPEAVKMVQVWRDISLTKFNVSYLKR

T3: human galectin-10-His (human)
T3 construct: The last M of the tag may be Met1 of galectin-10; also called humanGal10-His; hGal10
T3 chain: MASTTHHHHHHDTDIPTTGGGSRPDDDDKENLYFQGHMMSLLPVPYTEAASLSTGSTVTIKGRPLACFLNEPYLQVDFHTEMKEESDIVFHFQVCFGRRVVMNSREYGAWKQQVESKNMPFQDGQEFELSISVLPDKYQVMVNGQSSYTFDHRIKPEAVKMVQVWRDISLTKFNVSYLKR

T4: cynomolgus galectin-10-His, WGS isoform (cynomolgus)
T4 construct: also called cynoGal10-WGS; not shown: His tag
T4 chain: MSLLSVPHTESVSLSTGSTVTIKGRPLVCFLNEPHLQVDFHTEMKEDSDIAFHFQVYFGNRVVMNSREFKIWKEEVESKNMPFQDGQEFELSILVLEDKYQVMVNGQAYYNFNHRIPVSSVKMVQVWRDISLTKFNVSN


Legend:
[1] = molecular target: TEV-cleaved wild-type recombinant human galectin-10 (soluble, in Fab complexes, or as recombinant galectin-10 crystals / CLCs) (human) (UniProt Q05315); experiment: cell-based or functional assay
[2] = molecular target: T1, cynomolgus galectin-10-His, YRT isoform (cynomolgus); experiment: ELISA, coated antigen 0.5 ug/mL
[3] = molecular target: T2, recombinant human galectin-10, …; experiment: cell-based or functional assay
[4] = molecular target: T2, recombinant human galectin-10, …; experiment: cell-based or functional assay; remark: listed apart in the source
human galectin-10-His [5] = molecular target: T3, human galectin-10-His; experiment: ELISA, coated antigen 0.5 ug/mL
[6] = molecular target: T4, cynomolgus galectin-10-His, WGS isoform; experiment: ELISA, coated antigen 0.5 ug/mL
human galectin-10-His [7] = molecular target: T3, human galectin-10-His; experiment: SPR Biacore T3000, mouse IgG1 captured
[8] = molecular target: T4, cynomolgus galectin-10-His, WGS isoform; experiment: SPR Biacore T3000, mouse IgG1 captured

CLC formation (crystallization robot assay) [1] [%] | OD values [2] [OD] | 50% dissolution (min) of CLCs, antibody 50 uM [3] [min] | 90% dissolution (min) of CLCs, antibody 50 uM [3] [min] | 50% crystal dissolution (min), 50 uM [4] [min] | 90% crystal dissolution (min), 50 uM [4] [min] | EC50 (human galectin-10-His [5]) [nM] | OD values (human galectin-10-His [5]) [OD] | EC50 [6] [nM] | OD values [6] [OD] | Kd (human galectin-10-His [7]) [nM] | koff (human galectin-10-His [7]) [s⁻¹] | kon (human galectin-10-His [7]) [M⁻¹ s⁻¹] | Kd [8] [nM] | koff [8] [s⁻¹] | kon [8] [M⁻¹ s⁻¹] | Molecule
100 |  |  |  |  |  |  |  |  |  |  |  |  |  |  |  | mouse IgG1 isotype control (irrelevant mouse IgG1) (antibody)
 | 0.01 | 13.2 | 44.4 | 31.8 | 93 | 0.57 | 0.4 | 0.06 | 3.22 | 1.4 | 0.0039 | 2.78e+06 | 1.5 | 0.066 | 4.54e+07 | 7B07 mouse IgG1 (antibody, V domains shown, VH and VL cloned in frame with mouse IgG1 constant domains; also called 7B07 mIgG1) VH: QVQLVESGGGLVQPGGSLRLSCAASGFTFRSYDMSWVRQAPGKGPEWVSAIKNGGGITYYADSVKGRFTISRDNAKNTLYLQMNSLKPEDTAVYYCATTHGIGTLGFGSWGQGTQVTVSS VL: SYELTQSASVSVALTQTAKITCDGNNIGSKSAQWYQQKPGQAPALVIYADEYRPEGIPERFSGSNSGNTATLIISGAQAEDEADYYCQVWDGSAAVFGRGTHLTVL
